We go through two substances from PMC11189624.

The target of assay [1] is Melanophilin GTBM (Mus musculus) (UniProt Q91V27). Particulars: cited from earlier work.
In assay [2] the target is Mlph-ABD labelled with ATTO 488 NHS Ester dye (mouse) (UniProt Q91V27). The assay is described as follows: MST; Monolith NT.115, 25 °C; Mlph-ABD labelled with ATTO 488 at 20 nM; two-fold dilution series (16) of Myo5a-MTD or Myo5a-MTDΔG from 50 uM; 50 mM Tris-HCl pH 7.8, 100 mM NaCl, 10 mM MgCl2, 0.05% Tween 20.
Mlph-ABD labelled with ATTO 488 NHS Ester dye (mouse), sequence (Q91V27 401-590): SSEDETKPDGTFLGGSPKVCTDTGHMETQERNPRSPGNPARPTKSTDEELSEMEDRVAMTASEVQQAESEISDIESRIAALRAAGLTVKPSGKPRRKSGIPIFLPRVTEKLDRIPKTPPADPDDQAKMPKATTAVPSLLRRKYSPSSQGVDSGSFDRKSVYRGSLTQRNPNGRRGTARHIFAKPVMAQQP

Myosin-5a GTD, sequence (Q99104 1469-1853): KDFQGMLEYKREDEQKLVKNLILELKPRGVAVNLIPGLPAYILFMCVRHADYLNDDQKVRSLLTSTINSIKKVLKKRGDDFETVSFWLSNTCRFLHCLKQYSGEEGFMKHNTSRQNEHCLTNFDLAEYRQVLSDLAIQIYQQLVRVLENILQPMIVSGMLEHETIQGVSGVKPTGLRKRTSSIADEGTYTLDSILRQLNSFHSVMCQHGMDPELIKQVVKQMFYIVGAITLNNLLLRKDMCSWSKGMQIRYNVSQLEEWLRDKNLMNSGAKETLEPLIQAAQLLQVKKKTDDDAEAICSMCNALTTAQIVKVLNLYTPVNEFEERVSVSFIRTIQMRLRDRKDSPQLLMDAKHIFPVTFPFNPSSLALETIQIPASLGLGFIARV
Melanophilin GTBM (Mus musculus), sequence (Q91V27 176-201): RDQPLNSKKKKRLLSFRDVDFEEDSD

As for Myosin-5a GTD (from UniProt Q99104), the Kd – broadly, the concentration at which binding is half-saturated – in assay [1] was 1000 nM. In assay [2], “Flag-Myo5a-MTD (residues 1106–1467), bacterial-expressed (domain or fragment)” returned a Kd of 562 nM.
